Results on four molecules are retold here after paper PMC6355029, “Structure of the DP1–DP2 PolD complex bound with DNA and its implications for the evolutionary history of DNA and RNA polymerases”.

A word on the stoichiometry N: it is the number of molecules, sites or subunits per partner or assembly. What is called Kd is the free concentration of one partner at which half of the binding sites on the other are occupied at equilibrium, for simple one-to-one binding.

Data set [1] has as its target Pyrococcus abyssi PolD DP1 subunit, exonuclease-deficient variant H451A, full length (Pyrococcus abyssi) (UniProt Q9V2F3). Nature of the data set: AUC; sedimentation velocity of the copurified PolD complex at 0.2, 0.5 and 1 mg/ml, 42,000 rpm, 20°C; continuous c(s) distribution (Sedfit); sediments at 8 S, frictional ratio 1.4.
Data set [2] addresses T1, PolD DP1 H451A (exonuclease-deficient small subunit);PolD DP2 (large catalytic subunit) (Pyrococcus abyssi;Pyrococcus abyssi, UniProt Q9V2F3;Q9V2F4;Q9V2F4 1-619;1-954;1140-1455, H451A|). Description: fluorescence anisotropy; Fluorescence anisotropy: 20 mM sodium succinate pH 6, 100 mM NaCl, 25 C, 5 nM HEX-DNA, PolD up to 600 nM, DP2(1-1061) up to 6 uM. The note with it: protein: recombinant;recombinant; tags: N-terminal 14xHis, TEV-cleaved;; copies: 1;1;1; 3'-HEX in assay text; blunt, 25 bp. Background: In fluorescence polarisation assays a small probe gives low polarisation when free and higher when bound to something large.

Data set [3] has as its target T1, PolD DP1 H451A (exonuclease-deficient …). Described as above. The note with it: protein: recombinant;recombinant; tags: N-terminal 14xHis, TEV-cleaved;; copies: 1;1;1; 3'-HEX in assay text; 18 bp duplex, 5' overhang 7 nt on template.
Data set [4] shares this target. Nature of the data set: cryo-EM structure; Zn2+ and Fe3+ in protein; no nucleotide; Fluorescence anisotropy: 20 mM sodium succinate pH 6, 100 mM NaCl, 25 C, 5 nM HEX-DNA, PolD up to 600 nM, DP2(1-1061) up to 6 uM. The note with it: protein: recombinant;recombinant; tags: N-terminal 14xHis, TEV-cleaved;; copies: 1;1;1; 15 bp duplex, 5' overhang 5 nt on template.

T1 sequence (Q9V2F3 whole entry H451A, chain 1 of 3): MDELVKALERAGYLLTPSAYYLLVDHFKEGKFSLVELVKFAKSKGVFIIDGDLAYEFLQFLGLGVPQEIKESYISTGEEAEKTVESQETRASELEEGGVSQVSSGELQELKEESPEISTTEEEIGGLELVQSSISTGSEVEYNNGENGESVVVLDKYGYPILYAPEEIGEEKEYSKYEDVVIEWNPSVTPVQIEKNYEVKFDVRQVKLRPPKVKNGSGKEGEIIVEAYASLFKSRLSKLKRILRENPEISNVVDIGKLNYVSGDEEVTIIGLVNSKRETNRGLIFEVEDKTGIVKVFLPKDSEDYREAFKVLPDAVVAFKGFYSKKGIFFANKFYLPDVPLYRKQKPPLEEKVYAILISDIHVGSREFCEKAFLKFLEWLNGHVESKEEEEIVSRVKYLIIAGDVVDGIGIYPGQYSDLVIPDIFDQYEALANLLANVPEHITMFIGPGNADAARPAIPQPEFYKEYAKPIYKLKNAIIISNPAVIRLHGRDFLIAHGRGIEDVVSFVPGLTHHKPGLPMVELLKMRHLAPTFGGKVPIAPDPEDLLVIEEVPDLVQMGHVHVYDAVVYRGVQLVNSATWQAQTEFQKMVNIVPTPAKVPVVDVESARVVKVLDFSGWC
T1 sequence (Q9V2F4 1-954, chain 2 of 3): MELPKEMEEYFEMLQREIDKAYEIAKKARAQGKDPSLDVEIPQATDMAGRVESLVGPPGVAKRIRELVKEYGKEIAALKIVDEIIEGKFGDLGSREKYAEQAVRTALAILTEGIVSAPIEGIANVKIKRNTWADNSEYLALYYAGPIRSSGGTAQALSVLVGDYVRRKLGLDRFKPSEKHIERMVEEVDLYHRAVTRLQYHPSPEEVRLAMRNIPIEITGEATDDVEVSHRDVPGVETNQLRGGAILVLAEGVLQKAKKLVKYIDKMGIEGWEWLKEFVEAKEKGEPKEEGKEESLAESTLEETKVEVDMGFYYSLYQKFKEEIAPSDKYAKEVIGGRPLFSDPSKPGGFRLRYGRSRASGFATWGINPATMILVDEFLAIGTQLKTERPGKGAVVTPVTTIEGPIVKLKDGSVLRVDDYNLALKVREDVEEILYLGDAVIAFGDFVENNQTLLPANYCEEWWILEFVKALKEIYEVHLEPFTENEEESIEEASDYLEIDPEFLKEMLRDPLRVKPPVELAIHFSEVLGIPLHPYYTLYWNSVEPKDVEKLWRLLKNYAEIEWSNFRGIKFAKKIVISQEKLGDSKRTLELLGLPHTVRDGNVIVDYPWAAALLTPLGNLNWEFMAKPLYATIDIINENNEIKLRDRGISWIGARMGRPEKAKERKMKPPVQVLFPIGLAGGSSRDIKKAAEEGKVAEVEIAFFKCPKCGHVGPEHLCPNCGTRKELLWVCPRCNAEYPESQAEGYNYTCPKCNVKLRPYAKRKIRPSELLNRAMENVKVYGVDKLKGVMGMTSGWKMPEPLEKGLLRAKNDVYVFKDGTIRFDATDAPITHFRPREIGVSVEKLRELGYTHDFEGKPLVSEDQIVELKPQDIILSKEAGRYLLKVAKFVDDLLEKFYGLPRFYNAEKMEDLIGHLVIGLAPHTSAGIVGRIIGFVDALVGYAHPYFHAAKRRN
T1 sequence (Q9V2F4 1140-1455, chain 3 of 3): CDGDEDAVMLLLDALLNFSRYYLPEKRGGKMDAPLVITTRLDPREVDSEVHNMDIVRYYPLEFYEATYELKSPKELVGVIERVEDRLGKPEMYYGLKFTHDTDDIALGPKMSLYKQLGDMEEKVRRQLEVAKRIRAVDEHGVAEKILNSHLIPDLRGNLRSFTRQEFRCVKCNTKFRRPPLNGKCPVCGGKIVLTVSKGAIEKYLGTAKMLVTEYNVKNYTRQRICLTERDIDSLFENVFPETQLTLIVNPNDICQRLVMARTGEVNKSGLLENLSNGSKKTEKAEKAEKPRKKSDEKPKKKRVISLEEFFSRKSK
Pyrococcus abyssi PolD DP1 subunit, exonuclease-deficient variant H451A, full length (Pyrococcus abyssi), sequence (Q9V2F3 whole entry H451A): as the sequence (Q9V2F3 whole entry H451A, chain 1 of 3) above

Take “Pyrococcus abyssi PolD DP2 subunit, full length (from UniProt Q9V2F4 1-1455) (enzyme)”: the stoichiometry N in data set [1] is 1.

B1: HEX dsDNA (dsDNA)
DNA 1: CGCCGGGCCGAGCCGTGCACGACCT
DNA 2: AGGTCGTGCACGGCTCGGCCCGGCG
Take B1: in data set [2], the binding signal was 6.5 fold weaker Kd than primer-template.

B2: HEX primer/template (dsDNA)
DNA 1: CGCCGGGCCGAGCCGTGC
DNA 2: AGGTCGTGCACGGCTCGGCCCGGCG
Take B2: in data set [3], the Kd was 15 nM.

B3: cryo-EM primer/template (dsDNA)
DNA 1: GAGACGGGCCGCGTC
DNA 2: ACTTTGACGCGGCCCGTCTC
B3: the binding result in data set [4] is “binds”.
